“Also recorded” adds a separate entry of the source.
Legend:
AtPRK6^LRR ΔN239I240 = assay: In vitro pull-down with AtPRK6^LRR mutant with Asn239 and Ile240 deleted; format: binding, Arabidopsis thaliana; details: wild-type AtLURE1.2
Excerpt: (§1) The genes of AtPRK3 ^LRR (residues 1–241), AtPRK4 ^LRR (residues 1–277), AtPRK5 ^LRR (residues 1–279), AtPRK6 ^LRR (residues 1–262), MIK1 ^LRR (residues 1–633), MIK2 ^LRR (residues 1–707) were amplified from Arabidopsis cDNA library by PCR and cloned into pFastBac-1 vector with a C-terminal 6 × His-tag. Their identities were confirmed by sequencing. The mature form of AtLURE1.1 (residues 20–94), AtLURE1.2 (residues 20–90), AtLURE1.3 (residues 21–91), and AtLURE1.4 (residues 20–90) were cloned into pFastBac-1 vector, with a modified N-terminal hemolin signal peptide and 6 × His-SUMO tag. Point mutation constructs were generated by QuickChange Site-Directed Mutagenesis Kit (Strategene). All the proteins were expressed using the Bac-to-Bac baculovirus expression system (Invitrogen) in High Five cells at 22 °C. One liter of High Five cells (2.0 × 10^6 cells mL^−1) cultured in the medium from Expression Systems was infected with 25 ml recombinant baculovirus and the media was collected after 72 h of infection. Secreted LRR proteins were purified using Ni-NTA (Novagen) and size-exclusion chromatography (Hiload 200, GE Healthcare) in buffer containing 10 mM Bis-Tris pH 6.0 and 100 mM NaCl. […]
The purified His-tagged ectodomains of AtPRK proteins and MIK1, 2 were used to pull-down the AtLURE1.2 peptide. […] All the eluted samples were analyzed by SDS-PAGE and visualized by Coomassie blue staining. […]

MIK2^LRR = assay: Gel filtration assay with MIK2^LRR; format: binding, Arabidopsis; details: 4 °C 30 min, 10 mM Bis-Tris pH 6.0, 100 mM NaCl
Excerpt: as §1, with “NaCl. The His-SUMO tag of the AtLURE proteins was removed by Prescission Protease at 4 °C overnight in buffer containing 25 mM Tris pH 8.0 and 150 mM NaCl.” for “NaCl.”

MIK1^LRR = assay: ITC, AtLURE1.2 titrated into MIK1^LRR; format: binding, Arabidopsis; details: 25 °C, 200 mM HEPES pH 7.0, 100 mM NaCl, twenty injections of 0.5 mM AtLURE1.2 into 0.05 mM MIK1LRR
Excerpt: as §1
Supplementary Figure 6: Binding affinity between MIK1LRR, MIK2LRR and AtLURE1.2 was not detected in ITC assay. […]

B1: AtLURE1.2: mature form of AtLURE1.2 (residues 20–90), defensin-like cysteine-rich peptide expressed in insect cells (protein)
chain: TLINGSSDEERTYSFSPTTSPFDPRSLNQELKIGRIGYCFDCARACMRRGKYIRTCSFERKLCRCSISDIK
modifications: left off: His6, N-terminal, cleaved | SUMO, N-terminal, cleaved
notes: mature form of AtLURE1.2 (residues 20–90), defensin-like cysteine-rich peptide expressed in insect cells
interaction in pull-down assay (AtPRK6^LRR ΔN239I240): A similar effect was observed; also recorded: significantly compromised
interaction in gel filtration (MIK2^LRR): none of the purified AtPRK3^LRR, MIK1^LRR or MIK2^LRR proteins showed detectable interaction
binding in ITC (MIK1^LRR): not detected; also recorded: no obvious heat was produced; also recorded: none of the purified AtPRK3^LRR, MIK1^LRR or MIK2^LRR proteins showed detectable interaction
